Results on 14 molecules are retold here after patent US20220395553A1 (COHBAR, published 2022).

Square brackets hold non-standard residues; d marks the D form. Ends that are not written are not given here.

Test [1] has as its target T1, ProLink tagged human CXCR4 (C2C12 CXCR4 β-Arrestin cell line) (human, UniProt P61073 1-352). Briefly: cell-based or functional assay.
T1 sequence (P61073 whole entry): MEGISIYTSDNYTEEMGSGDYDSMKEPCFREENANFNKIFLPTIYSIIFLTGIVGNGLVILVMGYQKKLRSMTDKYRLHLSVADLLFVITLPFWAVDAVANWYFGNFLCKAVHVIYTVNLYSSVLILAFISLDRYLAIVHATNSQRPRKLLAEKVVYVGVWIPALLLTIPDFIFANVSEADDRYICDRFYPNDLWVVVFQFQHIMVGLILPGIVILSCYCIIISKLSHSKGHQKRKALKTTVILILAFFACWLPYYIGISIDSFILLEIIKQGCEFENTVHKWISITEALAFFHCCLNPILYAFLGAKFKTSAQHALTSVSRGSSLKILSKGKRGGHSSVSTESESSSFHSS
Test [2] deals with T2, CXCR4 on cultured U937 and Jurkat cells (human, UniProt P61073 1-352). Description: cell-based or functional assay.
T2 sequence (P61073 whole entry): as above
The target of test [3] is T2, CXCR4 on cultured U937 and Jurkat cells. Briefly: cell-based or functional assay. The source holds these as a separate data set.
For test [4], the target named is T3, SNAP tagged-CXC4 receptor labeled with terbium (Tag-lite CXCR4 cells, HEK293) (UniProt P61073 1-352, SNAP tag labeled with terbium fluorescent dye).
T3 construct: whole, on cells; Bought frozen cells (PerkinElmer-CisBio), HEK293 transiently expressing the receptor; also called terbium labeled CXCR receptor
T3 sequence (P61073 whole entry): as above
Description: HTRF competition on Tag-lite CXCR4 HEK293 cells; competitor labelled CXCL12. (In general: In TR-FRET formats the signal depends on donor and acceptor labels being close together.)

The target of test [5] is T3, SNAP tagged-CXC4 receptor labeled with …. The description is as above. As for the experimental part:
Peptides were initially prepared as 1 mM stock in H₂O. […] Following the manufacture's protocol, a frozen aliquot of Tag-lite CXCR4 cells was thawed and immediately seeded onto 384-well plates in TLB. […] The plates were covered in aluminum foil and left at room temperature for 3 hours. Following the 3 hour incubation period, the plates were removed from the incubator and fluorescence measured using a Cytation 1 plate reader using a HTRF filter cube ([…]; BioTek; Winooski, Vt.).
The source holds these as a separate data set.

In test [6] the target is T4, ProLink tagged human CXCR4 (C2C12 CXCR4 β-Arrestin cell line) (human, UniProt P61073 1-352). Briefly: cell-based or functional assay. This is another data set of the same source.
T4 sequence (P61073 whole entry): as above
The target of test [7] is T2, CXCR4 on cultured U937 and Jurkat cells. Briefly: cell-based or functional assay. The source holds these as a separate data set.
Test [8] deals with T4, ProLink tagged human CXCR4 (C2C12 CXCR4 …). Briefly: cell-based or functional assay. This is another data set of the same source.
For test [9], the target named is T1, ProLink tagged human CXCR4 (C2C12 CXCR4 …). Briefly: cell-based or functional assay. This is another data set of the same source.

B1: SEQ ID NO: 39 (peptide)
peptide: LERYHHTVRSSLRPYTK
As for B1, the “IC50 for Inhibition of CXCR4 Activation (β-Arrestin recruitment)” value (“IC50 for Inhibition of CXCR4 Activation” below) in test [1] is 3 nM. The “Percent Inhibition of CXCL12 Mediated Migration (1.1 µM Test Article; Jurkat cells)” value in test [2] turned out to be 77%. Moreover, in [3], the “Percent Inhibition of CXCR4/CXCL12 Induced p-MEK (100 nM Test Article)” value turned out to be 38% and the “Percent Inhibition of CXCR4/CXCL12 Induced p-MEK (1 µM Test Article)” value was 95%. Besides, the “Percent Inhibition of CXCR4/CXCL12 Binding (400 nM peptide)” value in test [4] turned out to be 87%. In test [5], the IC50 (in general, the midpoint of a concentration-inhibition curve) was determined as 8 nM.

B2: SEQ ID NO: 3 (peptide)
peptide: LRRYHHSVRSSLRPYTK
Take B2: in test [6], the “IC50 for Inhibition of CXCR4 (β-Arrestin recruitment)” value is 0.51 nM. The “Percent Inhibition of CXCL12 Mediated Migration (U937 cells)” value (shortened to “Percent Inhibition … (U937 cells)”) in [7] worked out at 101%. Also, the “IC50 for Inhibition of CXCR4 Activation” value in [8] worked out at 5 nM. Also, in test [2], the “Percent Inhibition of CXCL12 Mediated Migration (1.1 µM Test Article; Jurkat cells)” value worked out at 66%. In test [3], the “Percent Inhibition of CXCR4/CXCL12 Induced p-MEK (100 nM Test Article)” value was determined as 29% and the “Percent Inhibition of CXCR4/CXCL12 Induced p-MEK (1 µM Test Article)” value was 91%. This molecule came in with an IC50 in test [5] of 497 nM.

B3: SEQ ID NO: 73 (peptide)
peptide: LERYHHSVRTSLRPYTK
In the case of B3, in [1], the “IC50 for Inhibition of CXCR4 Activation” value stood at 4 nM. Besides, the “Percent Inhibition of CXCL12 Mediated Migration (1.1 µM Test Article; Jurkat cells)” value in test [2] is 82%. Moreover, in test [3], the “Percent Inhibition of CXCR4/CXCL12 Induced p-MEK (100 nM Test Article)” value was 47% and the “Percent Inhibition of CXCR4/CXCL12 Induced p-MEK (1 µM Test Article)” value was found to be 96%. Moreover, the “Percent Inhibition of CXCR4/CXCL12 Binding (400 nM peptide)” value in test [4] was found to be 87%. The molecule also registered an IC50 in test [5] of 10 nM.

B4: SEQ ID NO: 70 (peptide)
peptide: LRRYHHSVRTSLRPYTK
In the case of B4, in [1], the “IC50 for Inhibition of CXCR4 Activation” value worked out at 2 nM. In addition, the “Percent Inhibition of CXCL12 Mediated Migration (1.1 µM Test Article; Jurkat cells)” value in test [2] amounted to 21%. In addition, in test [3], the “Percent Inhibition of CXCR4/CXCL12 Induced p-MEK (100 nM Test Article)” value worked out at 57% and the “Percent Inhibition of CXCR4/CXCL12 Induced p-MEK (1 µM Test Article)” value worked out at 93%. Further, the “Percent Inhibition of CXCR4/CXCL12 Binding (400 nM peptide)” value in [4] was 11%. This molecule also showed an IC50 in test [5] of 336 nM.

B5: SEQ ID NO: 8 (peptide)
peptide: LDRYHHS[dA]RSSLRPYTK
B5: the “IC50 for Inhibition of CXCR4 Activation” value in [1] came to 3 nM. Besides, the “Percent Inhibition of CXCL12 Mediated Migration (1.1 µM Test Article; Jurkat cells)” value in [2] is 94%. Also, in test [3], the “Percent Inhibition of CXCR4/CXCL12 Induced p-MEK (100 nM Test Article)” value is 32% and the “Percent Inhibition of CXCR4/CXCL12 Induced p-MEK (1 µM Test Article)” value was found to be 88%. Besides, the “Percent Inhibition of CXCR4/CXCL12 Binding (400 nM peptide)” value in [4] is 86%. The IC50 in [5] is 9 nM.

B6: SEQ ID NO: 5 (peptide)
peptide: LERYHHS[dA]RSSLRPYT
Take B6: the “IC50 for Inhibition of CXCR4 (β-Arrestin recruitment)” value in test [9] was found to be 121 nM. Moreover, the “Percent Inhibition … (U937 cells)” value in test [7] came to 86%. Besides, the “IC50 for Inhibition of CXCR4 Activation” value in test [1] is 244 nM. Besides, the “Percent Inhibition of CXCL12 Mediated Migration (1.1 µM Test Article; Jurkat cells)” value in test [2] stood at 46%. In test [3], the “Percent Inhibition of CXCR4/CXCL12 Induced p-MEK (100 nM Test Article)” value was -20% and the “Percent Inhibition of CXCR4/CXCL12 Induced p-MEK (1 µM Test Article)” value was found to be 24%. The IC50 in test [5] stood at 33 nM.

B7: SEQ ID NO: 4 (peptide)
peptide: LERYHHSVRSSLRPYTK
For B7, the “IC50 for Inhibition of CXCR4 (β-Arrestin recruitment)” value in [6] is 2.28 nM. For the same molecule, in test [7], the “Percent Inhibition … (U937 cells)” value was 98%. Also, in test [8], the “IC50 for Inhibition of CXCR4 Activation” value was 4 nM. Also, the “Percent Inhibition of CXCL12 Mediated Migration (1.1 µM Test Article; Jurkat cells)” value in test [2] came to 77%. In test [3], the “Percent Inhibition of CXCR4/CXCL12 Induced p-MEK (100 nM Test Article)” value came out at 40% and the “Percent Inhibition of CXCR4/CXCL12 Induced p-MEK (1 µM Test Article)” value was 76%. For the same molecule, the “Percent Inhibition of CXCR4/CXCL12 Binding (400 nM peptide)” value in [4] stood at 88%. Besides, the IC50 in test [5] was found to be 6 nM.

B8: SEQ ID NO: 75 (peptide)
peptide: LERYHHSVRSSLRPYSK
Regarding B8, the “IC50 for Inhibition of CXCR4 Activation” value in test [1] was determined as 4 nM. Further, in test [2], the “Percent Inhibition of CXCL12 Mediated Migration (1.1 µM Test Article; Jurkat cells)” value amounted to 81%. In [3], the “Percent Inhibition of CXCR4/CXCL12 Induced p-MEK (100 nM Test Article)” value was 60% and the “Percent Inhibition of CXCR4/CXCL12 Induced p-MEK (1 µM Test Article)” value was found to be 100%. For the same molecule, the “Percent Inhibition of CXCR4/CXCL12 Binding (400 nM peptide)” value in [4] amounted to 81%. The molecule further displayed an IC50 in [5] of 11 nM.

B9: SEQ ID NO: 56 (peptide)
peptide: LERYHHSVRSSLRPYTK-NH2
Regarding B9, the “IC50 for Inhibition of CXCR4 Activation” value in [8] is 11 nM. Also, the “Percent Inhibition of CXCL12 Mediated Migration (1.1 µM Test Article; Jurkat cells)” value in [2] came out at 83%. For the same molecule, in test [3], the “Percent Inhibition of CXCR4/CXCL12 Induced p-MEK (100 nM Test Article)” value came out at 69% and the “Percent Inhibition of CXCR4/CXCL12 Induced p-MEK (1 µM Test Article)” value was 98%.

B10: SEQ ID NO: 79 (peptide)
peptide: LRRYHHSVRSSLRGYTK
On to B10, for which the “IC50 for Inhibition of CXCR4 Activation” value in test [1] was determined as 3 nM. Besides, the “Percent Inhibition of CXCL12 Mediated Migration (1.1 µM Test Article; Jurkat cells)” value in test [2] is 36%. Moreover, in test [3], the “Percent Inhibition of CXCR4/CXCL12 Induced p-MEK (100 nM Test Article)” value was found to be 46% and the “Percent Inhibition of CXCR4/CXCL12 Induced p-MEK (1 µM Test Article)” value is 100%. Besides, the “Percent Inhibition of CXCR4/CXCL12 Binding (400 nM peptide)” value in [4] is 12%. For the same molecule, the IC50 in test [5] was determined as 670 nM.

B11: SEQ ID NO: 2 (peptide)
peptide: MLRRYHHSVRSSLRPYTK
Consider B11, for which, in test [7], the “Percent Inhibition … (U937 cells)” value was determined as 58%. Moreover, the “IC50 for Inhibition of CXCR4 Activation” value in test [1] amounted to 11 nM. Also, the “Percent Inhibition of CXCL12 Mediated Migration (1.1 µM Test Article; Jurkat cells)” value in [2] was 4%. Besides, in test [3], the “Percent Inhibition of CXCR4/CXCL12 Induced p-MEK (100 nM Test Article)” value is -1% and the “Percent Inhibition of CXCR4/CXCL12 Induced p-MEK (1 µM Test Article)” value amounted to 28%. In addition, the IC50 in test [5] is 375 nM.

B12: SEQ ID NO: 74 (peptide)
peptide: LERYHHSVRSTLRPYTK
With B12, the “IC50 for Inhibition of CXCR4 Activation” value in [1] turned out to be 5 nM. The “Percent Inhibition of CXCL12 Mediated Migration (1.1 µM Test Article; Jurkat cells)” value in test [2] was found to be 61%. In test [3], the “Percent Inhibition of CXCR4/CXCL12 Induced p-MEK (100 nM Test Article)” value worked out at 48% and the “Percent Inhibition of CXCR4/CXCL12 Induced p-MEK (1 µM Test Article)” value was 93%. In test [4], the “Percent Inhibition of CXCR4/CXCL12 Binding (400 nM peptide)” value worked out at 88%. In addition, the IC50 in test [5] is 6 nM.

B13: SEQ ID NO: 16 (peptide)
peptide: LRRYHHSVRSSLRPYTK-NH2
As to B13, the “IC50 for Inhibition of CXCR4 Activation” value in [8] was 8 nM. Further, the “Percent Inhibition of CXCL12 Mediated Migration (1.1 µM Test Article; Jurkat cells)” value in test [2] was 21%. Further, in test [3], the “Percent Inhibition of CXCR4/CXCL12 Induced p-MEK (100 nM Test Article)” value was determined as 74% and the “Percent Inhibition of CXCR4/CXCL12 Induced p-MEK (1 µM Test Article)” value was 100%.

B14: SEQ ID NO: 7 (peptide)
peptide: LDRYHHSVRSSLRPYTK
Regarding B14, in test [1], the “IC50 for Inhibition of CXCR4 Activation” value stood at 1.5 nM. Moreover, in test [2], the “Percent Inhibition of CXCL12 Mediated Migration (1.1 µM Test Article; Jurkat cells)” value came to 52%. Besides, in [3], the “Percent Inhibition of CXCR4/CXCL12 Induced p-MEK (100 nM Test Article)” value amounted to 60% and the “Percent Inhibition of CXCR4/CXCL12 Induced p-MEK (1 µM Test Article)” value amounted to 96%. Besides, the “Percent Inhibition of CXCR4/CXCL12 Binding (400 nM peptide)” value in test [4] turned out to be 89%. In test [5], this molecule displayed an IC50 of 5 nM.
